# According to patent US20090155249A1 (AC IMMUNE S A, published 2009):
# Biological target: Amyloid Beta (antigen of the Amyloid Beta ELISA) (UniProt P05067 672-713, limits assumed)
# Assay: Amyloid Beta ELISA, purified antibodies, A405
# Chain of Amyloid Beta (antigen of the Amyloid Beta ELISA) (P05067 672-713 limits assumed): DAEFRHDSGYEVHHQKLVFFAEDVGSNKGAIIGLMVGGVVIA
binder,measurement,value
"chimeric antibody C2 ChVH AF/ChVK (antibody, V domains shown, both forms are written under this id; also called C2 VH AF/C2 VK chimeric antibody; chimeric AF) VH: EVQLVESGGGLVQPGGSLKLSCAASGFTFSSYGMSWVRQTPDKRLELVASINSNGGSTYYPDSVKGRFTISRDNAKNTLYLQMSSLKSEDTAMYYCASGDYWGQGSTLTVSS VL: DVVMTQTPLSLPVSLGDQASISCRSSQSLVYSNGDTYLHWYLQKPGQSPKLLIYKVSNRFSGVPDRFSGSGSGTDFTLKISRVEAEDLGVYFCSQSTHVPWTFGGGTKLEIKR",EC50 (read off the curve),~3 ng/well
